As usually defined, the stoichiometry N is the number of molecules, sites or subunits per partner or assembly.

Results on one substance are retold here after article PMC6956856.

In the assay the target is Drosophila melanogaster SERINC (Drosophila melanogaster). Put plainly: cryo-EM structure.

For the substance “Drosophila melanogaster SERINC (natural protein)”, the stoichiometry N turned out to be 6.
